Experimental data as given in US20240390506A1 (SUZHOU FUSE BIOSCIENCES, published 2024).
Changes are numbered by the printed parent chain. Values belong to the binder of their own block, whether it stands above or below them.

Molecular target: T1, human Fibroblast Activation Protein (FAP), soluble recombinant antigen (human, UniProt Q12884 26-760, biotinylated for BLI and panning (sites not given))
T1 construct: also called biotinylated FAP (Sino Biological); soluble FAP antigen
T1 sequence: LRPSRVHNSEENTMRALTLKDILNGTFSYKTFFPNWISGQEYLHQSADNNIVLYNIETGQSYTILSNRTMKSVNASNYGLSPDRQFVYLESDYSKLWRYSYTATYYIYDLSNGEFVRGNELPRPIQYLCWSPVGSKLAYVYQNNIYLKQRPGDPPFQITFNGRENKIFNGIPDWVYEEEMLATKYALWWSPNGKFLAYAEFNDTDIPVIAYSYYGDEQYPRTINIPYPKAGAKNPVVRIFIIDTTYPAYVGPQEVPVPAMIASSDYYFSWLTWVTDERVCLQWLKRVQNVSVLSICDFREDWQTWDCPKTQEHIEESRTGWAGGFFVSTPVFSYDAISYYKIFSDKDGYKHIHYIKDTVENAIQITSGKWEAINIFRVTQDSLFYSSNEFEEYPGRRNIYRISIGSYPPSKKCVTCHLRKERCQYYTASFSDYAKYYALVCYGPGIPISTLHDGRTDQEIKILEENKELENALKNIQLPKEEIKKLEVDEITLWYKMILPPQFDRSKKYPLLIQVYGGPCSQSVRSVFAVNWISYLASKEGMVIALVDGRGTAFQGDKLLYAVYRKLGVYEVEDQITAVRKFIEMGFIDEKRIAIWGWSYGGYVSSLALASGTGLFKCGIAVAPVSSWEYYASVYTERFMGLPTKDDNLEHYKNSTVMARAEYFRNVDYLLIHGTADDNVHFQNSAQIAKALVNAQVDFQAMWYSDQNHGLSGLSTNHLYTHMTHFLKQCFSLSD
Assay: BLI (Gator), biotinylated FAP on streptavidin sensor

Kd: 6.6 nM
koff: 0.0028 s⁻¹
kon: 420000 M⁻¹ s⁻¹
B1: 872-5 (antibody, V domains shown)
VH: EVQLVESGGGLVQPGGSLRLSCAASGFTFRGYIMSWVRQAPGKGLEWVSWISPEGSRTGYADSVKGRFTISRDNSKNTLYLQMNSLRAEDTAVYYCARLQYGTWFDYWGQGTLVTVSS
VL: DIQMTQSPSSLSASVGDRVTITCRASQSISSYLNWYQQKPGKAPKLLIYAASSLQSGVPSRFSGSGSGTDFTLTISSLQPEDFATYYCQQATLLLPTFGQGTKVEIKR

Kd: < 1 nM
kon: 110000 M⁻¹ s⁻¹
B2: 872-70 (antibody, V domains shown)
VH: EVQLVESGGGLVQPGGSLRLSCAASGFTFSRYSMSWVRQAPGKGLEWVSYITSTDGTTDYADSVKGRFTISRDNSKNTLYLQMNSLRAEDTAVYYCARSQYGRYYSPDYYFDYWGQGTLVTVSS
VL: B1 VL with A91S, T92R, L93T, L94S, L95P, P96Y

Kd: 15.5 nM
koff: 0.0056 s⁻¹
kon: 360000 M⁻¹ s⁻¹
B3: 872-59 (antibody, V domains shown)
VH: EVQLVESGGGLVQPGGSLRLSCAASGFTFTSYAMSWVRQAPGKGLEWVSSIYSWYGTTSYADSVKGRFTISRDNSKNTLYLQMNSLRAEDTAVYYCARTISYSQYAYGYSFDYWGQGTLVTVSS
VL: B1 VL with T92F, L93T, L94S, L95P, P96R
